In US7579445 one finds mean fluorescence data, which are given here for one substance.

Test [1] concerns the target surface of P815-PSA cells (PSA-transfected DBA/2 mastocytoma cell line). Briefly: FACS on P815-PSA cells; negative control 3.
Test [2] has the same target. The test is described as follows: FACS on P815-PSA cells; negative control 5.
Test [3] addresses surface of Line-1-PSA cells (PSA-transfected Balb/cByJ lung carcinoma cell line). The test is described as follows: FACS on Line 1-PSA cells; negative control 4.
Test [4] has the same target. Briefly: FACS on Line 1-PSA cells; negative control 7.

In the case of MOPC-21 (antibody), the mean fluorescence in test [1] was determined as 11; in test [2], 37; in test [3] it was 5; in test [4] it was 8.
